From patent US20040265808A1, “Genes involved in osteogenesis, and methods of use” (priority 2001, published 2004)

Columns and labels:
[1] = test system: pluripotent cells C3H10T1/2, ST2 and C2C12; test: Wnt-frizzled pathway and osteoblast differentiation, alkaline phosphatase measurement in pluripotent cells; type: cell-based, mouse; settings: C3H10T1/2, ST2 and C2C12
Description: FIGS. 1 to 7 represents the relationship between members of the Wnt-frizzled family, with bone formation, by measurement of alkaline phosphatase (ALP).
The inventors have also tested the capacity of Fz1 to interact with Wnt proteins and thus affect osteoblast differentiation. Overexpression of Fz1 decreased the activity of Wnt1, Wnt2 and Wnt3a in pluripotent cells C3H10T1/2 as determined by the alkaline phosphatase measurement (FIG. 4). However the expression of Fz3 or Fz4 increased the activity of Wnt proteins in the differentiation process (FIG. 6). […] This indicate that Frizzled may negatively or positively cooperate with their ligand proteins, Wnt, in these bone-related cells.
(§1) Mouse cell lines representing different stages of osteoblastic differentiation, C2C12, C2H10T1/2, ST2 and MC3T3-E1, were grown in the presence of agents capable of the induction of osteoblastic differentiation in vitro such as BMP2 and Sonic Hedgehog or in the presence of TGF beta (negative control) or with serum alone. Primary cells derived from mouse calvaria were also cultured for 0, 2, 7 14 and 21 days and RNA prepared for each time point. For example, C3H10T ½ and C2C12 can be obtained from the ATCC (Manassas, Va., USA) under the collection numbers CCL-226 and CRL-1772, respectively.

[2] = test system: C3H10T1/2 cells; test: Transient over-expression of candidate genes, cooperation with BMP2 by measurement of alkaline phosphatase; type: cell-based, mouse; parameters: key: +: positive or negative cooperation with BMP2; −: positive or negative cooperation with BMP2; settings: for Validation in vitro (coop over BMP2) C3H10T1/2: alkaline phosphatase; for Validation in C2H10T1/2 (coop over BMP2): alkaline phosphatase at 48 hours
Protocol: as §1
The candidates genes are cloned in expression vectors and their ability to express a protein of the expected size verified by COS cells transient transfection. The genes are then transfected in C3H10T1/2 cells and/or C2C12 cells (transient over-expression) and positive or negative cooperation with BMP2 is evaluated by the measurement of alkaline phosphatase (enzymatic assay and TaqMan) at 48 hours. Controls of positive cooperation, recombinant Sonic Hedgehog, or negative cooperation, recombinant Noggin, are included in each test.

| Molecule | activity of BMP-2 and Shh [1] | Validation in vitro (coop over BMP2) C3H10T1/2 [2] | Validation in C2H10T1/2 (coop over BMP2) [2] |
| --- | --- | --- | --- |
| O=c1cc(-c2ccc(O)cc2)oc2cc(O)cc(O)c12 [Apigenin, reference compound] | able to block |  |  |
| 67 (nucleic acid, listed as Mus musculus) AATCTAGAATGGCGTTGACTGCGGATGTGGCAGGACCAGCACCTTGGGGCTTCCGAATTAGCGGGGGCAGAGATTTCCACACACCCATCATTGTGACCAAGGTCACAGAGCGGGGCAAGGCTGAAGCAGCTGATCTCCGGCCTGGCGACATCATTGTGGCCATCAATGGACAGAGTGCAGAGAACATGCTACACGCGGAGGCCCAAAGCAAGATCCGACAGAGCGCCTCACCCCTAAGACTGCAGCTGGACCGGTCCCAAACAGCCTCTCCTGGGCAGACCAATGGGGAGGGCTCCTTGGAAGTGCTGGCAACCAGATTCCAGGGCTCCCTGAGGACACACCGTGACAGCCAGTCTTCCCAGAGGTCTGCCTGCTTCAGCCCAGTCTCTCTCAGCCCCAGGCCTTGCAGCCCCTTCTCCACCCCACCCCCTACCAGCCCAGTTGCCCTTTCTAAAGAGGATATGATTGGCTGTAGTTTCCAGAGTCTGACACACTCTCCAGGCCTTGCTGCTGCTCACCACTTGACCTACCCTGGCCACCCCACCAGCCAACAGGCCGGCCACAGCAGCCCAAGCGACTCCGCAGTGAGGGTGCTGCTCCATTCCCCAGGACGGCCCTCCAGCCCTAGGTTCAGCAGTTTGGATCTGGAGGAAGACTCAGAGGTGTTCAAGATGCTGCAGGAGAACCGCCAGGGACGGGCCGCCCCAAGGCAGTCCAGCTCTTTTCGACTCTTACAGGAAGCCTTGGAGGCTGAGGAGAGAGGTGGCACACCTGCCTTTGTGCCCAGCTCGCTGAGCTCCCAGGCTTCCTTGCCCACCTCCAGGGCCTTGGCCACTCCACCCAAGCTCCACACCTGTGAGAAATGCAGCGTCAACATCTCGAACCAGGCGGTCCGCATCCAGGAGGGGAGGTACCGACACCCTGGCTGCTACACTTGCGCAGACTGTGGGCTGAACCTGAAGATGCGCGGCCACTTCTGGGTGGGCAATGAGTTGTACTGCGAGAAGCATGCCCGCCAGCGCTACTCTATGCCTGGAACTCTCAACTCTCGAGCCACTAGTAA |  | − |  |
| 65 (nucleic acid, listed as Mus musculus) AATCTAGAATGGAGGCCAGAGCTCAGAGTGGCAACGGGTCGCAGCCTTTGCTGCAGACAGCCCATGACAGTGGCAGGCAGCGCGGGGAGCCGGATCCAAGAGATGCCCTTACCCAGCAGGTACACGTCTTGTCTCTGGATCAGATCAGAGCCATCCGAAACACCAATGAGTACACAGAGGGCCCTACTGTGGTCCCAAGACCTGGGCTCAAGCCTGCTCCTCGCCCCTCCACTCAGCACAAACATGAAAGACTCCACGGTCTGCCGGAGCACCGCCAGCCTCCCAGGCTCCAGCCCTCGCAGGTCCATTCTTCACGGGCCCCTCTGTCCAGGTCCATCAGCACTGTCAGCTCAGGGTCTCGGAGCAGTACAAGGACAAGTACCAGCAGCAGCTCCTCGGAACAGAGACTGTTAGGACCGTCCTTCTCCCACGGGCCTGCTGCTGCTGATGGAATAATCCGAGTGCAGCCTAAATCGGAGCTCAAGCCAGGTGACGTTAAGCCACTGAGCAAGGATGATTTGGGTCTGCATGCCTACAGGTGTGAGGACTGCGGCAAGTGCAAGTGTAAGGAGTGCACCTACCCGAGGCCCCTGCCGTCGGACTGGATCTGTGACAAGCAGTGCCTCTGCTCAGCCCAGAACGTCATTGACTATGGGACTTGTGTGTGCTGTGTGAAAGGTCTCTTCTATCACTGCTCCAATGACGATGAGGACAATTGTGCTGACAACCCGTGCTCTTGCAGCCAGTCCCATTGTTGTACGCGATGGTCAGCGATGGGAGTCATGTCTCTCTTTTTGCCTTGTTTATGGTGTTACCTTCCAGCCAAGGGTTGCCTTAAATTGTGCCAGGGGTGTTATGACCGAGTGAACAGGCCGGGTTGTCGTTGTAAAAACTCAAATACAGTTTGCTGCAAAGTTCCCACTGTCCCCCCTAGGAACTTTGAAAAACCAACAACTAGTAAAAGGGCGAATTCCAGCAC |  | + | + coop over BMP2 |
| 46 (nucleic acid, listed as Mus musculus) AATCTAGAATGGTGTCCACTAGCATCCCGGAGGTTAAAGCTCTCCGCAGCTCAGTCTCTGACTATGGGAACTATGATATCATAGTCCGGCATTACAACTACACAGGCAAGTTGAACATCGGGGCGGAGAAGGACCATGGCATTAAACTGACTTCAGTGGTGTTCATTCTCATCTGCTGCTTCATCATCCTAGAGAATATATTTGTCTTGCTAACTATTTGGAAAACCAAGAAGTTCCACCGGCCCATGTACTATTTCATAGGCAACCTAGCCCTCTCGGACCTATTAGCAGGCGTGGCTTACACAGCTAACCTGCTGTTGTCTGGGGCCACCACTTACAAGCTCACACCTGCCCAGTGGTTTCTGCGGGAAGGGAGTATGTTTGTGGCTCTCTCTGCATCAGTCTTCAGCCTCCTTGCCATCGCCATTGAGCGCTACATCACCATGCTGAAGATGAAACTACACAACGGGAGCAACAGCTCGCGCTCCTTTCTGCTGATCAGCGCCTGCTGGGTCATCTCCCTCATCCTGGGGGGCCTGCCCATCATGGGCTGGAACTGCATCAGCTCGCTGTCTAGCTGCTCCACCGTGCTCCCGCTCTACCACAAGCACTATATTCTCTTCTGCACCACCGTCTTCACTCTGCTCCTGCTTTCCATCGTCATCCTCTACTGCAGGATCTACTCCTTGGTCAGGACTCGAAGCCGCCGCCTGACCTTCCGCAAGAACATCTCCAAGGCCAGTCGCAGTTCTGAGAAGTCTCTGGCCTTGCTGAAGACGGTGATCATTGTCTTGAGTGTCTTCATTGCCTGCTGGGCCCCTCTCTTCATCCTACTACTGTTAGATGTGGGCTGCAAGGCGAAGACCTGTGACATCCTGTACAAAGCAGAGTACTTCCTGGTTCTGGCTGTGCTGAACTCAGGTACCAACCCCATCATCTACACTCTGACCAACAAGGAGATGCGCCGGGCCTTCATCCGGATCGTATCTTGTTGCAAATGCCCCAACGGAGACTCTGCTGGCAAATTCAAGAGGCCCATCATCCCAGGCATGGAATTTAGCCGCAGCAAATCAGACAACTCCTCTCACCCCCAGAAGGACGATGGGGACAACCCAGAGACCATTATGTCGTCTGGAAACGTCAATTCTTCTTCCACTAGTAA |  | + | + coop over BMP2 |
| 24 (nucleic acid, listed as Mus musculus) CGATCGATATGGCCAGCCCGCTGCGCTCCTTGCTGTTCCTGCTGGCCGTCCTGGCCGTGGCCTGGGCGGCGACCCCAAAACAAGGCCCGCGAATGTTGGGAGCCCCGGAGGAGGCAGATGCCAATGAGGAAGGCGTGCGGCGAGCGTTGGACTTCGCTGTGAGCGAGTACAACAAGGGCAGCAACGATGCGTACCACAGCCGCGCCATACAGGTGGTGAGAGCTCGTAAGCAGCTCGTGGCTGGAGTGAACTATTTTTTGGATGTGGAGATGGGCCGAACTACATGTACCAAGTCCCAGACAAATTTGACTGACTGTCCTTTCCATGACCAGCCCCATCTGATGAGGAAGGCACTCTGCTCCTTCCAGATCTACAGCGTGCCCTGGAAAGGCACACACTCCCTGACAAAATTCAGCTGCAAAAATGCCGCGGCCGCTT |  | − |  |
| 7 (nucleic acid, listed as Mus musculus) AATCTAGAATGAAGTCCTGCGGCCTTTTACCTTTCACGGTGCTCCTTGCTCTGGGGATCCTGGCACCCTGGACTGTGGAAGGAGGCAAAAATGATGCTATCAAAATCGGAGCCTGCCCTGCTAAAAAGCCTGCCCAGTGCCTTAAGCTTGAGAAGCCACAATGCCGTACTGACTGGGAGTGCCCGGGAAAGCAGAGGTGCTGCCAAGATGCTTGCGGTTCCAAGTGCGTGAATCCTGTTCCCATTCGCAAACCAGTGTGGAGGAAGCCTGGGAGGTGCGTCAAAACTCAGGCAAGATGTATGATGCTTAACCCTCCCAATGTCTGCCAGAGGGACGGGCAGTGTGACGGCAAATACAAGTGCTGTGAGGGTATATGTGGGAAAGTCTGCCTGCCCCCGATGACTAGTAA |  | + | + coop over BMP2 |
| 48 (nucleic acid, listed as Mus musculus) AATCTAGAATGGCAGCTGCCTCTACTTCCAGCCCTGTAATTTCACAGCCCCAGTTCACAGCCATGAACGAACAACAGTGCTTCTACAATGAGTCTATCGCCTTCTTTTATAACCGGAGTGGGAAATATCTAGCCACAGAATGGAACACAGTGAGCAAGCTGGTGATGGGACTGGGCATCACTGTTTGCGTGTTCATCATGTTGGCCAATCTCCTGGTCATGGTGGCAATCTACGTCAACCGCCGCTTCCATTTCCCTATTTATTACTTGATGGCCAACCTGGCTGCTGCAGACTTCTTCGCTGGATTGGCCTACTTCTACCTGATGTTCAATACAGGACCTAATACCCGGAGACTGACTGTTAGCACGTGGCTCCTCCGGCAGGGCCTCATTGACACCAGCCTGACAGCTTCTGTGGCCAACCTGCTGGCTATTGCTATCGAGAGGCACATCACGGTTTTCCGCATGCAGCTCCATACACGAATGAGCAACCGGCGCGTGGTGGTGGTGATTGTAGTCATCTGGACTATGGCCATTGTGATGGGTGCTATACCCAGTGTGGGCTGGAACTGCATCTGTGATATCGATCACTGTTCCAACATGGCACCCCTCTACAGTGACTCCTACTTAGTCTTCTGGGCCATTTTCAACCTGGTGACCTTTGTGGTCATGGTGGTTCTCTACGCTCACATCTTTGGCTATGTTCGCCAGAGGACTATGAGGATGTCTCGGCATAGTTCTGGACCCAGGAGGAATCGGGACACCATGATGAGCCTTCTGAAGACTGTGGTCATTGTGCTTGGTGCCTTTATTGTCTGCTGGACTCCGGGATTGGTCTTGTTATTGCTGGATGTGTGCTGCCCGCAGTGCGATGTCCTGGCCTATGAGAAGTTCTTCCTCCTCCTGGCCGAGTTCAACTCTGCTATGAACCCCATCATCTACTCCTACCGCGACAAAGAGATGAGCGCCACCTTCAGGCAGATCCTGTGTTGCCAGCGCAACGAGAACCCTAATGGCCCCACGGAAGGCTCTGACCGCTCTGCCTCCTCCCTCAACCACACCATTCTGGCTGGAGTTCACAGCAACGACCACTCTGTGGTTACTAGTAA |  | + | + coop over BMP2 |
